Measured values from US11136597B2, “Compositions for enhancing targeted gene editing and methods of use thereof” (Yale University, priority 2016, dated 2021).

B1: SCF: recombinant murine stem cell factor, the ligand for c-Kit (protein)
chain: MKEICGNPVTDNVKDITKLVANLPNDYMITLNYVAGMDVLPSHCWLRDMVIQLSLSLTTLLDKFSNISEGLSNYSIIDKLGKIVDDLVLCMEENAPKNIKESPKRPETRSFTPEEFFSIFNRSIDAFKDFMVASDTSDCVLSSTLGPEKDSRVSVTKPFMLPPVA

Columns and labels:
F508del CFTR [1] = experiment: Nasal potential difference (NPD) in CF mice after intranasal delivery; type: in vivo, mouse; settings: intranasal delivery of NPs
Source text: (§1) FIG. 7A is a bar graph showing the results of a MQAE (N-(Ethoxycarbonylmethyl)-6-Methoxyquinolinium Bromide) assay (delta(AFU)/(delta(Time (sec)) measuring chloride flux for negative control CFBE cells; CFBE cells treated with blank nanoparticles, PNA2: lys-lys-lys-TJTJJTTT-OOO-TTTCCTCTATGGGTAAG-lys-lys-lys (SEQ ID NO:93)-loaded nanoparticles, PNA2 (SEQ ID NO:93)-loaded nanoparticles with an MPG peptide, γPNA2 lys-lys-lys-TJTJJTTT-OOO-TTTCCTCTATGGGTAAG-lys-lys-lys (SEQ ID NO:69)-loaded nanoparticles; and untreated positive control wildtype 16HBE14o-cells. FIG. 7B is a dot pot showing nasal potential difference (NPD) (pretreatment, after treatment with γPNA2 (SEQ ID NO:69)-loaded nanoparticles, and after treatment with blank nanoparticles) measured using a non-invasive assay used to detect chloride potential differences in vivo.
(§2) A substantial increase in gene editing in F508del CFTR using γtcPNAs with just partial γ substitution and only in the Hoogsteen domain of CF PNA2.

F508del CFTR [2] = experiment: MQAE assay measuring chloride flux in CFBE cells; type: cell-based; settings: NPs containing γtcPNAs with 4 γ residues in the Hoogsteen domain, versus unmodified PNA
Source text: as §1, §2

[3] = test system: human β-globin gene with the thalassemia-associated IVS2-654 mutation; experiment: Disease phenotype in IVS2-654 β-thalassemic mice (blood smears, CBC, reticulocytes, spleen); type: in vivo, mouse; settings: day 36 after last treatment, four treatments at two-day intervals, SCF i.p., NPs i.v.
Description: The IVS2-654 β-thalassemic mice were also obtained from Ryszard Kole, University of North Carolina (Svasti, et al., Proc Natl Acad Sci USA, 106:1205-1210 (2009)). For treatment of the mice, where indicated SCF (15.6 ug per mouse, Recombinant Mouse SCF, carrier-free, R&D catalog #455-mc-050/CF) was injected intraperitoneally 3 hrs prior to treatment with 4 mg of NPs in 150 μl PBS delivered via retro-orbital intravenous injection. Each mouse received 4 treatments given at 48 hr intervals. Mice were anesthetized with isoflurane followed by retro-orbital bleeding (˜100 μL) using ethylenediaminetetraacetic acid-treated glass capillary tubes. The blood was evacuated into tubes with 5 μL of 0.5 M EDTA acid in heparinized coated tubes. Complete blood counts were performed using a Hemavet 950FS (Drew Scientific, Oxford, Conn.) according to the manufacturer's protocol. Slides containing blood smears were stained with Wright and Giemsa stain for microscopy. Methylene blue staining was used for reticulocyte counts. Spleen images and weights were taken after selected mice were sacrificed on day 36 after the last treatment. Harvested spleens were fixed in 10% neutral buffered formalin and processed by Yale Pathology Tissue Services for H&E, CD61 and E cadherin staining. […]

[4] = test system: DNA repair genes (Rad51, BRCA2); experiment: Gene expression profiling of SCF-treated versus untreated CD117+ cells; type: cell-based, mouse
[5] = test system: CD117+ cells from β-globin/GFP transgenic mice; experiment: Ex vivo gene editing in pre-sorted CD117+ cells with or without SCF or c-Kit pathway kinase inhibitors; type: cell-based, mouse
Description: For CD117+ cell experiments, Iscove's Modified Dulbecco's Media (IMDM) media containing insulin (10 ng/ml), FCS (10%) and erythropoietin (1 U/ml) was used to culture CD117+ cells after isolation using magnetic separation. Where indicated, 3 μg/ml of SCF (Recombinant murine SCF, catalog #250-03, PeproTech, Rocky Hill, N.J.;) was added prior to nanoparticle treatment. 2 mg/ml of NPs were used to treat 50,000-100,000 CD117+ cells in triplicate for 48 hrs in the above media, followed by flow cytometry analyses as above. Inhibitors were used at concentrations of 200 nM (dasatinib), 1.0 μM (MEK162) and 3.0 μM (BKM120). Dasatanib was obtained from Cayman Chemical (Ann Arbor, Mich.; item #11498) and dissolved according to manufacturer's protocol. MEK162 and BKM120 were obtained from Dr. Harriet Kluger, Yale University.
BD Bioscience kit catalog #558451 (BDImag™ Hematopoietic Progenitor Stem Cell Enrichment Set—DM) was used to isolate CD117 cells. Enrichment for CD117 was confirmed by flow cytometry. CD117+ enriched cells were labeled with CD117-APC (BD Pharmingen™ catalog #558451) antibody. Cells were co-labelled with control IgG antibody (BD Pharmingen™ catalog #555746) for gating purposes. To quantify GFP expression, after CD117 co-labelling, flow cytometry was performed using FACScaliburS by resuspending cells in PBS/1% FBS where green fluorescent cells are measured in the Fl1 channel and APC stained cells are in the Fl4 channel Antibodies for other markers were Ter119 (BD Pharmingen™ catalog #561033) and CD45 APC (BD Pharmingen™ catalog #561018).
To explore the mechanism of the increased gene editing in CD117+ cells, the requirement of c-Kit-dependent signaling for elevated gene correction or whether CD117 simply serves as a marker for the increased susceptibility to gene editing was distinguished. To do this, γtcPNA4/donor DNA NP-mediated gene editing was assayed in pre-sorted CD117+ cells in the presence or absence of selected kinase inhibitors (FIG. 2D). Dasatinib, which inhibits the c-Kit kinase in addition to the BCR/Abl and Src kinases, reduced the gene editing from 7% to 2.0%.

[6] = test system: homology-dependent repair (HDR); experiment: Luciferase reporter gene assay for homology-dependent repair (HDR) in CD117+ cells; type: cell-based, mouse
Description: An inactivating I-Sce1 site was cloned 56 amino acids into the firefly luciferase open reading frame under the control of a CMV promoter. The reporter construct also contains a promoterless luciferase gene used as a template for homologous recombination. A double-strand break in the luciferase reporter is created by in vitro digestion with the I-Sce I restriction enzyme (NEB #R0694L). Plasmid DNA was digested with I-Sce 1 for 1 hour at 37° C. at a ratio of 10 units enzyme to 1 μg DNA and then the enzyme was inactivated at 65° C. for 20 minutes. The linearization of the plasmid was confirmed for each digestion via gel electrophoresis and the linear plasmid was purified using the Qiagen Qiaquick spin columns. After separation CD117+ and CD117-cells from bone marrow of β-globin/GFP transgenic mice, cells were transfected using the Lonza 2b Nucleofector Device. 5×10^5 cells were transfected with 1 μg of either the luciferase reporter vector or a positive control firefly luciferase expression vector, along with 50 ng of a renilla luciferase expression plasmid as a transfection efficiency control. All transfections were performed in triplicate. After transfection the cells were plated at a density of 5×10^5 cells/ml in 12-well plates. After 24 hours incubation post transfection, luciferase activity was measured using the Promega Dual Luciferase Assay Kit. In each sample firefly luciferase activity was normalized to the renilla luciferase transfection control. Reporter reactivation was calculated as a ratio of normalized firefly luciferase activity in the cells transfected with the reporter plasmid to the positive control.
To test whether the above increases in DNA repair gene expression could be correlated with functional differences in DNA repair, a luciferase-based assay was used to quantify repair of DNA double-strand breaks (DSBs) by HDR. In this assay, repair of a DSB in a reporter plasmid via intramolecular homologous recombination creates (“reactivates”) a functional luciferase gene (FIG. 2H), and so the assay provides a measure of HDR capacity (FIG. 2J).

Molecule | activity in vivo by NPD measurements (F508del CFTR [1]) | increase in activity for CFTR gene correction (MQAE assay) (F508del CFTR [2]) | RBC morphology in blood smears [3] | DNA repair gene expression [4] | change of gene editing frequency on SCF treatment ([5]; CD117+ cells) | gene editing frequency in CD117+ cells treated with SCF ([5]; γtcPNA4/donor DNA NPs, 3 μg/ml SCF added prior to nanoparticle treatment) | HDR repair activity (luciferase reactivation) in CD117+ cells ([6]; CD117+ cells) | fold increase in HDR ([6]; CD117+ cells treated with SCF)
lys-lys-lys-TJTJJTTT-OOO-TTTCCTCTATGGGTAAG-lys-lys-lys (lysine caps, linker, γ residues, in nanoparticles, as printed in the source, key not given here) [γPNA2, CF PNA2 with 4 γ residues in the Hoogsteen domain, delivered in nanoparticles] | substantial increase in activity | more than 50% | – | – | – | – | – | –
B1 | – | – | not | additional up-regulation of numerous DNA repair genes | almost doubles the frequency | ~15% | further boosted | 2 fold
